Measured values as given in the nanobody polyreactivity screen of Harvey et al. (2022).

Experiment: yeast display, Sf9 membrane polyspecificity reagent, FACS + sequencing; frameworks hold sequencing errors
How it was run: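 Galactose induction of a Saccharomyces cerevisiae BJ5465 synthetic nanobody display library ran 36–48 hours. The cells were then stained for 1 hour at 4 °C with 10% biotinylated, detergent-solubilized Sf9 membrane reagent, pulled down on streptavidin microbeads and FACS-sorted into low and high (top ~1%) gates on expression and reagent-binding fluorescence. Labels for polyreactivity follow the gate of origin.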
In the case of “QVQLVESGVCLVQAGGSLRLSCASSGLIIPPNAMGWYRQPPGKERELVASITRSGGSTYYADSVKGRFTISRDNAKNTVYVQMNSLTPEDTAVYYCAAYLDTSRYGVLYDYWGQGTQVTVSS”, the “polyreactivity (PSR sort gate)” value is reported as “low polyreactivity”.
For “QVQLVESGVGIVQARGSLRLSCAASGYTFYRYTMGWYRQSRGNERELVAAINSGGSTNYADSVKGRFTISRDNAKNTVYLQMNSLKPEDTAVYYCAAGDGPWLPRVHYGGYGYWGQGTQVTVSS”, the “polyreactivity (PSR sort gate)” value was “high polyreactivity”.
In the case of “QVQLVESGVGKVQAGGSLRLSCAASGSTIGSNAMGWYRQAPGKESELVATINWRGGSTYADSVKGRFTLSRDNAKNTVYLQINSLKPEDTAVYYCKKVRGAFYSHLFDYWGQGTEVTVSS”, the “polyreactivity (PSR sort gate)” value is reported as “high polyreactivity”.
In the case of “QVQLVESGVGLFQAGGSLRLSCAASGITFYSYAMGWYRQAPGKESQLVATISRSGSTYYADSVKGRFTISRDNAKNSVYLQMNSLKPEDTAVYYCAAYYAVRGATYRYGYWGQGTQVTVSS”, the “polyreactivity (PSR sort gate)” value is reported as “high polyreactivity”.
In the case of “QVQLVESGVGLVHAGGSLRLSCAASGFTFKENAMGWYRQAPGKERELVAAISSTGGSTYYADSVKGRFTISRDIAKNTVYLQINRLKPEDTAVYYCAASTYWYDGDYWGQGTQVTVSS”, the “polyreactivity (PSR sort gate)” value is reported as “high polyreactivity”.
With “QVQLVESGVGLVKAGGILRLSCAASGFTFASNVMGWSRQAPGKERELVAAITSGASTNYADSVKGRFTISRDNAKNTVYLQMNSLKPEDTAVYYCAAGRQWYVFYEFDYWGQGTQVTVSS” the “polyreactivity (PSR sort gate)” value was “high polyreactivity”.
For “QVQLVESGVGLVQAAGSLRLSCAASGFIFWVNAMGWYRQAPGKEREFVAAIRSSGGNTYYADSVKGRFTISRDNAKNTVYLQMNSLKPEDTAVYYCAADSVIVTYESDYWGQGTQVTVSS”, the “polyreactivity (PSR sort gate)” value was “low polyreactivity”.
For “QVQLVESGVGLVQAGCSLRLSCAASGFTNAMGWYRQAPGKERELVAAISYSGDSTNYADSLKGRFTISRDNAKNTVYLQMNSMKPVDTAVYYCNASSPYDYDWGQGTQVTVSS”, the “polyreactivity (PSR sort gate)” value was “low polyreactivity”.
In the case of “QVQLVESGVGLVQAGCSLRLSCAASGSTFVLNAMGWYLQAAGKERELVAAISRGGASTYSADSVKGRFTISRDYAKNTVYLQMNSLKPEDTAVYYCNASGYGPGVVIYLVVYDYWGQGTQVTVSS”, the “polyreactivity (PSR sort gate)” value is reported as “low polyreactivity”.
For “QVQLVESGVGLVQAGGILRLSCAASGFIFALNAMGWYRQAPGKERELVATIDSTSGSTYYADSVKGRFTISRDNAKNTVYLEMNSLKPEDTAVYYCAVVHAQSAPMDYWGQGTQVTVSS”, the “polyreactivity (PSR sort gate)” value was “low polyreactivity”.
For “QVQLVESGVGLVQAGGILSLSCAASGLTFGAYTMGWYRQAPGKERELVAAITSSGGRTYYADSVKGRFTISRDNAKITFYLQMNSLKPEDTAVFYCNARIFRSPNPYDYWGQGTQVSVSS”, the “polyreactivity (PSR sort gate)” value was “high polyreactivity”.
With “QVQLVESGVGLVQAGGRLLLSCAASRSIFTRYTMGWYSQAPGKEWELVATISSRGDGTFYADSVKGRFTISRDNAKNTFYLQMNSLKPEDTAVYYCAARYRRVHSGYGYWGQVTQVTVSS” the “polyreactivity (PSR sort gate)” value was “high polyreactivity”.
In the case of “QVQLVESGVGLVQAGGRLRLSCAASGRTFYYYAMGWYRQAAAKERELVAAITTDGGNTFYADSVKGRFTISRDNAKNSVYIQMNSLKPEDSAVYYWAKSDTEGYYWDVPVTFDYGGQGTQVTVSS”, the “polyreactivity (PSR sort gate)” value is reported as “low polyreactivity”.
For “QVQLVESGVGLVQAGGSHRLSCAASGFTFLINAMGWYRQEPWKERELVAAIRSGGSTNYADSVKGRFTISRDNAKNTVYLQMNSLKPEETAVYYCAARRYYPDKYRYGYWGQGTQVTVSS”, the “polyreactivity (PSR sort gate)” value was “high polyreactivity”.
With “QVQLVESGVGLVQAGGSLRLICAASGRTFYWYAMGWYRQAPRKERELVATITRGGRTYYADSVKGRFTISRDNAKNTVYLQMNSLKPEDTAVYDCATVSIAGPRYDYWGQGTQVTVSS” the “polyreactivity (PSR sort gate)” value was “high polyreactivity”.
With “QVQLVESGVGLVQAGGSLRLICAASGSIFWSNAMGWYTQAPGKERELVAAISSGGSTYADSVKGRFTISRDNAKNTVYLQMNSLKPEDTAVYYCNADVLYGDSYRGGYWGQGTQVTVSS” the “polyreactivity (PSR sort gate)” value was “low polyreactivity”.
For “QVQLVESGVGLVQAGGSLRLICAASGSIFYPYTMGWYRQAPGKERELVAAITINGGSTYYADSVKGRFTISRDNAKNTVYLQMNSLKPEDTAVYYCAAYYASPRHGYWGQGTQVTVSS”, the “polyreactivity (PSR sort gate)” value was “low polyreactivity”.
With “QVQLVESGVGLVQAGGSLRLRCAASGSTFIVYALRWSRQAPGKERELVAAISWNGGRTYYADSVKGRFTISRDNAKKTVYLQMNSLKPEDTAVYYCPATLYNTEDDYWGQGTQVTLSS” the “polyreactivity (PSR sort gate)” value was “low polyreactivity”.
For “QVQLVESGVGLVQAGGSLRLSCAASGFIFCGYAMVWYRHAPGKERELVAAISWSGDNTYYADSVKGRFTISRDNAKNTVYFQMNSLKPEDTAVYYCAADSYGQEYDYWGQGTQVSVSS”, the “polyreactivity (PSR sort gate)” value was “low polyreactivity”.
For “QVQLVESGVGLVQAGGSLRLSCAASGFIFDHNAMGWYRQAPGKERELVAAITRSGGSTYYADSVKGRFTISRDNAKNTVYLQMNSLKPEDTAVYYCAADLSYRGATRGDYYWGQGTQVTVSS”, the “polyreactivity (PSR sort gate)” value was “low polyreactivity”.
For “QVQLVESGVGLVQAGGSLRLSCAASGFIFHRNAMGWYRQAPGKERELVASITKRGGNTYYADSVKGRFTISRDNAKNTVYLQMNSLKPEDTAVYYCATHLWGWDWKRDYWGQGTQVTVSS”, the “polyreactivity (PSR sort gate)” value was “high polyreactivity”.
In the case of “QVQLVESGVGLVQAGGSLRLSCAASGFIFPTYAMGWYRQAPGKEREFVASITRRGGSTYYADSVKGRFTISRDNAKNSVYLQMNSLKPEDTAVYYCAAGYYGFRGGGSDYWGQGTQVTVSS”, the “polyreactivity (PSR sort gate)” value is reported as “high polyreactivity”.
With “QVQLVESGVGLVQAGGSLRLSCAASGFIFRKYTMGWYRQAPGKERELVATIDSSGGSTYYADSVKGRFTISRDNAKNTVYLQMNSLKPEDTAVYYCNADLRELSPWYWYSGEMDYWGQGTQVTVSS” the “polyreactivity (PSR sort gate)” value was “low polyreactivity”.
In the case of “QVQLVESGVGLVQAGGSLRLSCAASGFIFYRNAMGWYRPAPGKERELVAGISRVGSTYYADSVKGRFTISRDNAKNTVYLQMKSLKPEDTAVYYCATSTYAYRRNSYYYTRPRFGYWGQGTQVSVSS”, the “polyreactivity (PSR sort gate)” value is reported as “high polyreactivity”.
In the case of “QVQLVESGVGLVQAGGSLRLSCAASGFILTAYDMGWYRQAPGKERELVAAIDWIGGSTYYADSVKGRFTISRDNAKNTVYLQMNSLKPEDTAVYYCAARFYSYVYRLDYWGQGTQVTVSS”, the “polyreactivity (PSR sort gate)” value is reported as “low polyreactivity”.
With “QVQLVESGVGLVQAGGSLRLSCAASGFTFSYNALGWYRQAPGKERELVAAISSSGGSTYYADSVKGRFTISRDNAKNTVYLQMNILKPEDTAVYYCAVPYLTLYGRTYDYWGHGTQVTVSS” the “polyreactivity (PSR sort gate)” value was “high polyreactivity”.
In the case of “QVQLVESGVGLVQAGGSLRLSCAASGFTISYYTIGWSRQAPGKDRELVAAISSTGVSTYYADSVKGRFTISRDTAKNTVYLPLNSLKPEDTSVYYCAADYYGVYEYYYWGQGTQVTVSS”, the “polyreactivity (PSR sort gate)” value is reported as “high polyreactivity”.
For “QVQLVESGVGLVQAGGSLRLSCAASGGTFRPYAMGWYRHAPGKESELVAAISYTGSTYYADSVKGRFTISRDNAKNTVYLQMNSLKPVDTAVYYCAKDLWYPPRFDYWGQGTQVTVSS”, the “polyreactivity (PSR sort gate)” value was “low polyreactivity”.
For “QVQLVESGVGLVQAGGSLRLSCAASGIIFKVYAMGWYRQAPGKERELVAAISKSGGSTYYADSVKGRFTISRDNAKNTVYLQMNSLKPEDTAVYYCAARDYARYASYYYWGLGTQVTVSS”, the “polyreactivity (PSR sort gate)” value was “high polyreactivity”.
With “QVQLVESGVGLVQAGGSLRLSCAASGIIFYDNALGWYRQAPGKERELVAAITDSGGTTYYADSVKGRFTISRDNAKNTVYLEMNSLKPEDNAVYYCAAETTATHGFAYDYWGQGTQVTVSS” the “polyreactivity (PSR sort gate)” value was “low polyreactivity”.
In the case of “QVQLVESGVGLVQAGGSLRLSCAASGIIFYEYAMGWNRQAPWKERELVATITSGGSTNYADSVKGRFTISRDNAKNTVYLQMNSLKPEDTAVYYCNADWWWGYGYWGQGTQVTVSS”, the “polyreactivity (PSR sort gate)” value is reported as “low polyreactivity”.
In the case of “QVQLVESGVGLVQAGGSLRLSCAASGITFSYYAMGWYRQAPGKERELVAAISGSGTSTYYADSVKGRFTISRDNAKNTVYLQMNSLKPEDTAVYYCAAGPPRKPGYYYWGQGTQVTVSS”, the “polyreactivity (PSR sort gate)” value is reported as “high polyreactivity”.
In the case of “QVQLVESGVGLVQAGGSLRLSCAASGITFTGYAMGWYRQAPGKERELVAVISETGGSTYADSVKGRFTISRDNAKNTVYLQMNSLKPEDTAVYYCATRLWWPYSTAWAKMDYWGQGTQVTVSS”, the “polyreactivity (PSR sort gate)” value is reported as “low polyreactivity”.
For “QVQLVESGVGLVQAGGSLRLSCAASGNIFWWNAMGWYRQAPGKERELVAAITSDSTTYYADSVKGRFTISRDNAKKTVYFQMNSLKPEDTAVYYCAAYSYGGQGVDYGYWGQGTQVNVSS”, the “polyreactivity (PSR sort gate)” value was “low polyreactivity”.
With “QVQLVESGVGLVQAGGSLRLSCAASGNIITTYAMGWYRQAPGKERELVAAISRTGGRTSYADSVKGRFTISRDNAKNTVYLQMNSLKPEDTAVYYCAAVQTVRQSAPRARILSDYWGQGTQVTVSS” the “polyreactivity (PSR sort gate)” value was “high polyreactivity”.
For “QVQLVESGVGLVQAGGSLRLSCAASGNILGYNAIGWYRQAPGKETELVAAISWIGGSTYYADSVKGRFTISRDNAKNTVYLQMNSLKPEDTAVYYCAARYRTYFTYEYWGQGTQVTVSS”, the “polyreactivity (PSR sort gate)” value was “low polyreactivity”.
With “QVQLVESGVGLVQAGGSLRLSCAASGRIFHINAMGWYRQAPGKERELVATISGTDRTTYADSVKGRFTISRDNAKNTVYLQMNSLKPEDTAVYYCAAPTDFLFWEFDYWGQGTQVTVSS” the “polyreactivity (PSR sort gate)” value was “low polyreactivity”.
For “QVQLVESGVGLVQAGGSLRLSCAASGRIFIKYAMGWYRQAPGKEREFVAAISGRGGSTYYADSVKGRFTISRDNAKNTVYLQMNSLKPEDTAVYYCAKRFFSSGTAAGMYYWGQGTQVTVSS”, the “polyreactivity (PSR sort gate)” value was “high polyreactivity”.
For “QVQLVESGVGLVQAGGSLRLSCAASGRIFRTYAMGWYRQAPGKERELVAAITSGGGSTYYADSVKGRFTISRDNAKNTVYLQMNSLKPEDTAVYYCAARPGIRSYPPGYGYWGQGTQVTVSS”, the “polyreactivity (PSR sort gate)” value was “high polyreactivity”.
For “QVQLVESGVGLVQAGGSLRLSCAASGRIFRWYPMGWYRQAPGKERELVASITWNGGSTYYADSVKGRFTISRDNAKNTVYLQMKSLKPEDTAVYYCAVPFYRGPEMGYWGQGTQVTVSS”, the “polyreactivity (PSR sort gate)” value was “high polyreactivity”.
With “QVQLVESGVGLVQAGGSLRLSCAASGRIFTPYAMGWYRQAPGKERELVAAITGSGGITYYADSVKGRFTISRDNSKNTVYLQMNSLKPEDTAVYYCNADTPVWDGHAYPGDYWGQGTQVTVSS” the “polyreactivity (PSR sort gate)” value was “low polyreactivity”.
In the case of “QVQLVESGVGLVQAGGSLRLSCAASGRNFGTNAIGWYRPAPGKERELVAAISSSGGSTYYADSVKGRFTISRDNAKNTVYLQMNSLKPEDTAVYYCAKGWHRGVGFGYWGQGTEVTVSS”, the “polyreactivity (PSR sort gate)” value is reported as “high polyreactivity”.
In the case of “QVQLVESGVGLVQAGGSLRLSCAASGRTIPIYAMGWYRQAPGKERELVASITRSGGSTYYADSVKGRFTISRDNAKYTVYLQMNSLKPEDTAVYYCAAAANSYSVYSGKFYYWGQGTQVTVSS”, the “polyreactivity (PSR sort gate)” value is reported as “high polyreactivity”.
